US20210403538A1

Columns and labels:
[1] = biological target: MARV GP [change] (Lake Victoria marburgvirus) (UniProt Q1PD50)
[2] = biological target: SUDV GP [change] (Sudan ebolavirus) (UniProt Q7T9D9)
[3] = biological target: BDBV GP [change] (Bundibugyo ebolavirus (BDBV), strain 200706291 Uganda); test: ELISA, coated recombinant GP ΔTM
[4] = biological target: EBOV GP [change] (Zaire ebolavirus (EBOV), strain Makona); test: ELISA, coated recombinant GP ΔTM
[5] = biological target: SUDV GP [change] (Sudan ebolavirus (SUDV), strain Gulu) (UniProt Q7T9D9); test: ELISA

4G7 (antibody)
EC50 [1]: > 10 µg/mL | EC50 [2]: > 10 µg/mL | EC50 [3]: > 10 µg/mL | EC50 [4]: 0.018 µg/mL

KZ52 (antibody)
EC50 [1]: > 10 µg/mL | EC50 [2]: > 10 µg/mL | EC50 [3]: > 10 µg/mL | EC50 [4]: 0.014 µg/mL

rEBOV-520 LALA
EC50 [5]: 0.377 µg/mL
